Test results from US20240382610A1 (TALLAC THERAPEUTICS, published 2024).
One block for each binder: values may come before it.

Legend:
[1] = target: T1, Human nectin-4 ECD-6His (TNT-175) (human, UniProt Q96NY8 32-349); test: competition ELISA; nectin-4 ECD premixed with TNT202, captured by the coat antibody; % of signal without premix antibody
T1 construct: the entry holds the extracellular domain with the C-terminal 6His tag
T1 sequence: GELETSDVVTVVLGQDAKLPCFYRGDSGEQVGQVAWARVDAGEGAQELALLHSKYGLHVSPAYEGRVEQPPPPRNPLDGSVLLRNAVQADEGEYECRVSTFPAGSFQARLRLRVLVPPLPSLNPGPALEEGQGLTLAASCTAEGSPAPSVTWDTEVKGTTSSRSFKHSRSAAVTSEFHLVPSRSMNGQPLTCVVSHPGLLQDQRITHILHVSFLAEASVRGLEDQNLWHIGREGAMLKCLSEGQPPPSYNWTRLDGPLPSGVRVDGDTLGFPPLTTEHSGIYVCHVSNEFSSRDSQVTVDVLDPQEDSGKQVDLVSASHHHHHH
Procedure, shortened: (§1)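 Goat anti-mouse IgG was coated at 1 mg/mL in PBS overnight at 4° C. Premixes were applied for an hour, then rabbit anti-6×His HRP (1:4,000) for an hour at room temperature, then ABTS for 20 minutes. O.D. values, background-corrected, were reported relative to nectin-4 alone at its lowest dilution.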

[2] = target: T1, Human nectin-4 ECD-6His (TNT-175); test: competition ELISA; nectin-4 ECD premixed with TNT211, captured by the coat antibody; % of signal without premix antibody
Procedure, shortened: as §1

[3] = target: T1, Human nectin-4 ECD-6His (TNT-175); test: competition ELISA; nectin-4 ECD premixed with TNT201, captured by the coat antibody; % of signal without premix antibody
Procedure, shortened: as §1

[4] = target: T1, Human nectin-4 ECD-6His (TNT-175); test: competition ELISA; nectin-4 ECD premixed with TNT205, captured by the coat antibody; % of signal without premix antibody
Procedure, shortened: as §1

[5] = target: T1, Human nectin-4 ECD-6His (TNT-175); test: competition ELISA; nectin-4 ECD premixed with TNT206, captured by the coat antibody; % of signal without premix antibody
Procedure, shortened: as §1

[6] = target: T1, Human nectin-4 ECD-6His (TNT-175); test: competition ELISA; nectin-4 ECD premixed with TNT204, captured by the coat antibody; % of signal without premix antibody
Procedure, shortened: as §1

[7] = target: T1, Human nectin-4 ECD-6His (TNT-175); test: competition ELISA; nectin-4 ECD premixed with TNT212, captured by the coat antibody; % of signal without premix antibody
Procedure, shortened: as §1

[8] = target: T1, Human nectin-4 ECD-6His (TNT-175); test: competition ELISA; nectin-4 ECD premixed with TNT209, captured by the coat antibody; % of signal without premix antibody
Procedure, shortened: as §1

[9] = target: T1, Human nectin-4 ECD-6His (TNT-175); test: competition ELISA; nectin-4 ECD premixed with TNT210, captured by the coat antibody; % of signal without premix antibody
Procedure, shortened: as §1

[10] = target: T1, Human nectin-4 ECD-6His (TNT-175); test: competition ELISA; nectin-4 ECD premixed with TNT207, captured by the coat antibody; % of signal without premix antibody
Procedure, shortened: as §1

human nectin-4 on cells = target: T2, human nectin-4 on cells (human, UniProt Q96NY8 32-510); test: flow cytometry MFI, MNK74 (nectin-4 positive) over AGS (negative)
T2 construct: whole, on cells; also called PVRL4
T2 sequence (looked up): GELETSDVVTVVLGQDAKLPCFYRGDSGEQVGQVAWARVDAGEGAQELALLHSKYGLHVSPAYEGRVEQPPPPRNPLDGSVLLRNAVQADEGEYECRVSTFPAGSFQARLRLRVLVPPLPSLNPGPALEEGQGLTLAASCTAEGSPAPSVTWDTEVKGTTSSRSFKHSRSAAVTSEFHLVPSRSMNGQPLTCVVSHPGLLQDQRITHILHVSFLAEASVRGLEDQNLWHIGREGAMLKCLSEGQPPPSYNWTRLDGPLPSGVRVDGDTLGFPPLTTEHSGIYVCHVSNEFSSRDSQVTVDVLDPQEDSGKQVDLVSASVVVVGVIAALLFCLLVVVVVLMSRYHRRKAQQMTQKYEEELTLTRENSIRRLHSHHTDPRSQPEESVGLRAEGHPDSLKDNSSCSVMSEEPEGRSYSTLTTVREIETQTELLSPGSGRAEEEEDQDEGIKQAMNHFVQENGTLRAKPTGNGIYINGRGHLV

[11] = target: T1, Human nectin-4 ECD-6His (TNT-175); test: competition ELISA; nectin-4 ECD premixed with TNT208, captured by the coat antibody; % of signal without premix antibody
Procedure, shortened: as §1

[12] = target: T1, Human nectin-4 ECD-6His (TNT-175); test: competition ELISA; nectin-4 ECD premixed with TNT203, captured by the coat antibody; % of signal without premix antibody
Procedure, shortened: as §1

[13] = target: T1, Human nectin-4 ECD-6His (TNT-175); test: SPR ProteOn, mAb on protein A
Experimental: Initial testing of binding of nectin-4 antibodies to nectin-4. […] Biotinylated protein A (15 μg/mL) was immobilized to the surface of an NLC chip. 30 nM of purified mAb supernatant was diluted in PBS-T and captured over the protein A surface. Serial dilutions of human nectin-4 were injected over the mAb-coated chips, and binding kinetics were determined. Chips were regenerated using 4:1 v/v of IgG elution butter/4M NaCl.

- % of Positive [1]: 2.5%
- % of Positive [2]: 19.5%
- % of Positive [3]: 0.9%
- % of Positive [4]: 56.9%
- % of Positive [5]: 5.4%
- % of Positive [6]: 2.2%
- % of Positive [7]: 1.9%
- % of Positive [8]: 26%
- % of Positive [9]: 0.8%
- % of Positive [10]: 1%
- Fold-change of binding to MNK74 compared to control AGS (human nectin-4 on cells): 5.9 fold
- % of Positive [11]: 2.1%
- % of Positive [12]: 29.8%
- Kd [13]: 20.2 nM
- koff [13]: 0.00138 s⁻¹
- kon [13]: 68400 M⁻¹ s⁻¹
B1: TNT-198 (antibody, mouse IgG2a, kappa)
heavy: EVQLVQSGAEVKKPGSSVKVSCKASGGTFSSYAISWVRQAPGQGLEWMGWINPNSGGTNYAQKFQGRVTMTRDTSTSTAYMELSSLRSEDTAVYYCATGYYGDLYYFDYWGQGTLVTVSSAKTTAPSVYPLAPVCGDTTGSSVTLGCLVKGYFPEPVTLTWNSGSLSSGVHTFPAVLQSDLYTLSSSVTVTSSTWPSQSITCNVAHPASSTKVDKKIEPRGPTIKPCPPCKCPAPNLLGGPSVFIFPPKIKDVLMISLSPIVTCVVVDVSEDDPDVQISWFVNNVEVHTAQTQTHREDYNSTLRVVSALPIQHQDWMSGKEFKCKVNNKDLPAPIERTISKPKGSVRAPQVYVLPPPEEEMTKKQVTLTCMVTDFMPEDIYVEWTNNGKTELNYKNTEPVLDSDGSYFMYSKLRVEKKNWVERNSYSCSVVHEGLHNHHTTKSFSRTPGRPQGFGPP
light: DIVMTQSPSSLSASVGDRVTITCRASQGISNYLAWYQQKPGKVPKLLIYAASTLQSGVPSRFSGSGSGTEFTLAISSLQPEDLATYYCQQLNSHPITFGQGTRLEIKRADAAPTVSIFPPSSEQLTSGGASVVCFLNNFYPKDINVKWKIDGSERQNGVLNSWTDQDSKDSTYSMSSTLTLTKDEYERHNSYTCEATHKTSTSPIVKSFNRNEC

- % of Positive [1]: 12.8%
- % of Positive [2]: 35.4%
- % of Positive [3]: 2.7%
- % of Positive [4]: 52.5%
- % of Positive [5]: 20%
- % of Positive [6]: 9.2%
- % of Positive [7]: 10.1%
- % of Positive [8]: 43.7%
- % of Positive [9]: 8%
- % of Positive [10]: 7.5%
- Fold-change of binding to MNK74 compared to control AGS (human nectin-4 on cells): 4.3 fold
- % of Positive [11]: 12.7%
- % of Positive [12]: 40%
- Kd [13]: 7.03 nM
- koff [13]: 0.00153 s⁻¹
- kon [13]: 217000 M⁻¹ s⁻¹
B2: TNT-188 (antibody, mouse IgG2a, kappa)
heavy: EVQLVQSGAEVKKPGSSVKVSCKASGYTFTGYYMHWVRQAPGQGLEWMGWINPNSGGTNYAQKFQGRVTMTRDTSISTAYMELRSLRSDDTAVYYCARGSALHFFGVFDYWGQGTLVTVSSAKTTAPSVYPLAPVCGDTTGSSVTLGCLVKGYFPEPVTLTWNSGSLSSGVHTFPAVLQSDLYTLSSSVTVTSSTWPSQSITCNVAHPASSTKVDKKIEPRGPTIKPCPPCKCPAPNLLGGPSVFIFPPKIKDVLMISLSPIVTCVVVDVSEDDPDVQISWFVNNVEVHTAQTQTHREDYNSTLRVVSALPIQHQDWMSGKEFKCKVNNKDLPAPIERTISKPKGSVRAPQVYVLPPPEEEMTKKQVTLTCMVTDFMPEDIYVEWTNNGKTELNYKNTEPVLDSDGSYFMYSKLRVEKKNWVERNSYSCSVVHEGLHNHHTTKSFSRTPGRPQGFGPP
light: not shown
